The values that follow come from US20050084890A1, “High-throughput screening assay for inhibitors of replication protein A” (priority 2003, published 2005).

The target in data set [1] is T1, RPA (Homo sapiens, UniProt P27694).
T1 construct: made in house; host or cells: Escherichia coli
The experiment in a line: Homogeneous high-throughput fluorescence assay of RPA's DNA binding activity (96-well). The settings on record: blind experiment; 5, 25 or 50 pmol competitor in 3 of 96 wells. The protocol:
Specifically, the percentage inhibition is calculated by taking the difference between the fluorescence values of reactions containing DNA and RPA and reactions containing DNA, RPA, and the test compound and dividing by the difference between the fluorescence values of reactions with DNA and RPA and the fluorescence of the DNA alone. This value is then multiplied by 100 to give percentage inhibition. The measurement is typically reported as fluorescence above the background fluorescence of the reporter alone. In one aspect the of the assay the DNA is single stranded DNA.
In accordance with one exemplary embodiment of the present invention, a homogeneous high-throughput screening assay is provided that employs a novel fluorescent reporter for measuring RPA's DNA binding activity. […] The fluorescence is then quantified in a 96-well plate fluorescence spectrophotometer. […]
RPA (10 pmol) was added to each well of a 96-well plate in a volume of 100 μl. […] Plates were read in a fluorometer. Fluorescence emission was read at 518 nm following excitation at […]. Fluorescence was read using a 96-well plate reader with a 2.5 nm excitation slit width and a 5 nm emission slit width. […] The data is presented as fluorescence above the background fluorescence of the reporter alone unless indicated otherwise. […]

For data set [2], the target named is T2, Replication Protein A (RPA) (Homo sapiens, UniProt P27694;P15927;P35244 P27694:1-616,P15927:1-270,P35244:1-121). In words: competition; 5, 25 or 50 pmol unlabeled DNA inhibits RPA binding to the fluorescein-labeled reporter. The note with it: tags: expressed in E. coli from vector pdT11 (Marc Wold). Here is the method: RPA (10 pmol) was added to each well of a 96-well plate in a volume of 100 μl. Individual compounds were added to each well followed by the fluorescent reporter. The final reaction volume was 200 μl. Plates were read in a fluorometer. Fluorescence emission was read at 518 nm following excitation at […]. Fluorescence was read using a 96-well plate reader with a 2.5 nm excitation slit width and a 5 nm emission slit width. To calculate the percentage inhibition, the difference between the fluorescence values of reactions containing DNA and RPA and […] the test compound was divided by the difference between the fluorescence values of reactions with DNA and RPA and the fluorescence of the DNA alone. This value was then multiplied by 100 to give percentage inhibition. The data is presented as fluorescence above the background fluorescence of the reporter alone unless indicated otherwise.
T2 sequence (P27694 whole entry, chain 1 of 3): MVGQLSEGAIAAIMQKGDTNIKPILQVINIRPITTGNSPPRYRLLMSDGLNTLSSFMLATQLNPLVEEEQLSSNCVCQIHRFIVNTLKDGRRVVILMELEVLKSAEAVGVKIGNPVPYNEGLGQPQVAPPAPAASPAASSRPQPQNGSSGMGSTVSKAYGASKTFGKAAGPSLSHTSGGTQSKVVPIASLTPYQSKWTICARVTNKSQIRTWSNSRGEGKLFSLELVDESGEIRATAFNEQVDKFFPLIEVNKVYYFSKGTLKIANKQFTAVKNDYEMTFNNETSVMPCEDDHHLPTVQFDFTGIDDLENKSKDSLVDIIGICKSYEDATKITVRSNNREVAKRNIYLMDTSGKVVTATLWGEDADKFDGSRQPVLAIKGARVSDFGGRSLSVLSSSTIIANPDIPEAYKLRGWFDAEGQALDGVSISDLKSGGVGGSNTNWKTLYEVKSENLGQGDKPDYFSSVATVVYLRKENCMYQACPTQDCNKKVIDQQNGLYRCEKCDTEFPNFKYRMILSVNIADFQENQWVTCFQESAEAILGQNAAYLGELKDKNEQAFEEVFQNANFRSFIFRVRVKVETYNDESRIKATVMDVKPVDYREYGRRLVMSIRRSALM
T2 sequence (P15927 whole entry, chain 2 of 3): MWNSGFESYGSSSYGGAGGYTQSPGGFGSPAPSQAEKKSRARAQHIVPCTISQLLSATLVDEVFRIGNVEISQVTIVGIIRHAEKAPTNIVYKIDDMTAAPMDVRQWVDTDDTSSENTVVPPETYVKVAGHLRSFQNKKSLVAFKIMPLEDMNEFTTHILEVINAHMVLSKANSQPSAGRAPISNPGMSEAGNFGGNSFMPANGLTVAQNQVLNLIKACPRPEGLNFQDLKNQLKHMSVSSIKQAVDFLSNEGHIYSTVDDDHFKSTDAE
T2 sequence (P35244 whole entry, chain 3 of 3): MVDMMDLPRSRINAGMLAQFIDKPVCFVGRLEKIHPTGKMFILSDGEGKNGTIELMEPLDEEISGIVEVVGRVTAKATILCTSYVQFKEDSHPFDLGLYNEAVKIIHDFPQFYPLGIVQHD
To determine the effectiveness of this assay, a blind experiment was performed in which 3 of the 96 wells were added to 5, 25, or 50 pmol DNA substrate that has the exact sequence of the fluorescent DNA reporter without the fluorescein label. This DNA would compete for RPA, therefore acting as an inhibitor. […] The effect of DMSO on reaction sensitivity and reproducibility was assessed and the results indicated no difference in assay sensitivity.

For data set [3], the target named is T2, Replication Protein A (RPA). The experiment in a line: FP; polarization r max 0.23 without compound; saturation at about 15 pmol RPA in control as printed. The settings on record: tags: expressed in E. coli from vector pdT11 (Marc Wold); label: fluorescein. The protocol: To more precisely determine if the method of inhibition was via an interaction with DNA or RPA, fluorescence polarization experiments were conducted. Fluorescence polarization is a measure of the rate at which an object tumbles or rotates in three-dimensional space. In this experiment, a fluorescein-labeled dT₃₀ substrate DNA is employed which results in a baseline polarization that is increased upon RPA binding; to the DNA and slowing its rotation. Using this method, it can be determined if the interaction of the compound was with DNA or RPA by constructing binding isotherms varying RPA at a fixed concentration of DNA with and without the addition of specific compounds. Using fluorescence polarization, compounds that exert their inhibitory effect through an interaction with the DNA were capable of being identified. Fluorescence polarization was performed by titrating RPA into a reaction containing fluorescein-labeled dT₃₀ DNA in the presence and absence of 20 μM compound (FIG. 5). […] This conclusion is further supported by experiments performed measuring the effect of compound 1:51 on polarization of the DNA in the absence of RPA. In these reactions, the r value of the DNA plus compound was slightly greater than the r value of the DNA without compound.

For data set [4] the target is unchanged. The experiment in a line: fluorescence enhancement (ex 498 nm, em 518 nm); hyperbolic curve saturating at 1:1 RPA:DNA. The note with it: tags: expressed in E. coli from vector pdT11 (Marc Wold); label: 5' fluorescein. Here is the method:
In an effort to investigate the effect small molecules have on the interaction of RPA with DNA, an HTS assay was developed that relies on the use of a fluorescein-labeled ssDNA substrate. […] In an effort to optimize the detection, fluorescent excitation and emission wavelengths were tested along with varying slit widths and voltages. The optimal parameters were excitation at 498 nm and emission at […]. The optimal excitation and emission slit widths and voltage were 2.5 and 5 nm and 800 V, respectively.
In an attempt to test a large number of compounds simultaneously, the assay was converted to a 96-well plate format. In this assay, the fluorescein-labeled DNA was diluted into assay buffer and 100 μl were dispensed into each well. The fluorescence of each well was then read. Each well then received 100 μl RPA and the fluorescence of each well was read again. Percentage increase of fluorescence was then calculated from these two readings and is represented in FIG. 1.

T1 sequence (P27694 whole entry): as the sequence (P27694 whole entry, chain 1 of 3) above
T1 sequence (P15927 whole entry partner): as the sequence (P15927 whole entry, chain 2 of 3) above
T1 sequence (P35244 whole entry partner): as the sequence (P35244 whole entry, chain 3 of 3) above

In the case of “DNA substrate that has the exact sequence of the fluorescent DNA reporter without the fluorescein label: unlabeled 30 base ssDNA of SEQ ID NO: 1 sequence, competes for RPA, acting as an inhibitor (DNA GGGGAAGTAAGGACGCGGAAAGGATAGGGG; DNA, backbone not given here; unlabeled competitor ssDNA)”, the “inhibition of RPA binding to the fluorescein-labeled DNA” value in data set [1] is “significant inhibition”. In the case of GGGGAAGTAAGGACGCGGAAAGGATAGGGG (ssDNA) [30-base unlabeled competitor DNA], in data set [2], the binding result is listed as “binds”. As for TTTTTTTTTTTTTTTTTTTTTTTTTTTTTT (ssDNA, [NONE]) [dT30], the binding result in data set [3] was “binds”.

As for GGGGAAGTAAGGACGCGGAAAGGATAGGGG (ssDNA) [30-base purine-rich reporter DNA], in data set [4], the binding result is recorded as “binds”.
